From a protein production outcome set (Wang et al. 2014) come the findings set out here.

The data set is described as follows: label from the status in PepcDB records.
In the case of “MIGAVIEAGVGITAALISLIEDKQNFLKKYEVSLIILPILVIFFHSMLIVPIYVFSIISGTYLYSKKFYYPFLLLFVSVFLIYIVYGINYPWKSTDIAISAGMIVVMVFDSREKEYVKQNEMNRGTDRKKEIRRDYVQILAGAVIILLIYYYGIDVSRILVTFGSLVLYVTGNFLAGRPDLLLGKLLNSLERSSTKLGIGSLWFASGILIAYSLHDSTAVVMMIVFSIAVGDSLATIIGTSVSSPKLPINRKKSAAGSIAFFAASAAFAIFVLGYAGLFYAAVATITEAVSGFPLDDNLTVPFILSILAYVSKML”, the protein production entry is given as “failed”.
As to “MDMKAPIKVYMTKKLLGVKPSTSVQEASRLMMEFDVGSLVVINDDGNVVGFFTKSDIIRRVIVPGLPYDIPVERIMTRNLITANVNTPLGEVLRKMAEHRIKHILIEEEGKIVGIFTLSDLLEASRRRLETAISAE”, the protein production entry is recorded as “not failed”.
Then “MRNPNDVFHLAIPARDLDEAYDFYVTKLGCKLARRYPDRITLDFFGDQLVCHLSDRWDREVSMYPRHFGITFRDKKHFDNLYKLAKQRGIPFYHDLSRRFEGLIEEHETFFLIDPSNNLLEFKYYFDDRMMY”, with “not failed”; and “MSWSKVKYFFFDTPEEKEAAQYGYEKEQTDMKKQQDPPEQQDVTFPKAQPKQNVVSIETAKQSSKVVLLEPRTYSEAQGIADHLKGRRAVVINLQRMSTDQAVRIVDFLSGTVYAIGGDIQKIGPKTFMCTPENVDIVGAISELFGEEEETNIKRWLEHHHHHH”, with “not failed”; and “DAAPAPAAEAAPAAAPAPAAAAELKEVHVPDIGGDEVEVTEIMVAIGDSIEEEQSLITVEGDKASMEVPAPFAGTLKEIKVAAGDKVSTGSLIMVFETAGSGAPAAPAAVEAPAAAAPAASAA”, with “failed”.
Then “HKSMSKMKSTLKQFISMGNMLTAENNFFRQMQGLLSETTEIAAMTGGIIFLADKQEGHFTPTAFRWNGENIPVAEMPSLSITEDSFTTFQPVLEGKTIAGTLNKENIFHQLQDFLQPYLPLRFVAVPMKTHDKQLLGFLLLFNPYQLNAEREHSKIQLVNALVGSLSVSVETQQLLQEQKNLLNA”, with “failed”; and “IMDQDGRSMFADGSKVPFERTRLLLQRLAVPLRATPLRVTIVGHTSSGLMPERSDYNGWDLSSDRANSVRQILEREGLPGSHIFAVTGKADSQPLFPDDPSIAANRRVTITLMRESPALP”, with “failed”.
Next, “MTDKKTTEKKETETAATFTEELTAVLEEIKEEPVKEKKKGEIVTIVNETDIQIGEREYRIVKNHRDAFDPERLGERFSEVLARYDYIVGDWGYEQLRLRGFFDTSNRRAAPDQRIDTLEDYLYEYCNFGCAYFVIERTGERKEKTTHRRRRHKKNNRSNAFVEEKSAPANKNSKPVIRTRKEENKKTTTPKQPSPKKSGKGFTIRQREELEHHHHHH”: “not failed”; “MLLYIHGFNSSPFSDKAVITARYMAEYHPSLTFHQPQLPNTPKAAMALLQSYVEAAQQANEPLNYIGSSLGGYFASYLAERYGGRAVLVNPAVKPFELFDEFMGPQFNPYTQEHYQVLPEHKREVAEFNTPVIRNPERFLVLLQTGDEVLDYREALHKYHHCQLRIESGGDHSFVGYERYLQTVSQFLH”: “failed”; “NLKVKGARDVFEYMKGRIPDETKEHLFVLFLSTKNQILRHETITIGTLTASLIHPREIFKAAIRESAHSIILVHNHPSGDVQPSNADKQVTSILKKAGDLLQIELLDHVIVGNNDWFSFRDHALL”: “not failed”.
Consider “MMNDYLNFLDGRVSVRRFDPDAVLPNDLIKDMLEHASYAPSGNNFQPWRVVVVKNKNKQEDLKKLAALQPQVATASAVFLLFGDENAYDLTWWQEFHVQKGIITKDEAAARAERIRQYFDLHPEDKETQGLRLDVGLFAMNLMQVVRVYGYDSVPMRGVDFDAIKTYLDMPNGWEPILMLPVGKALQAGNPHVRKSVAEFAEIIE”, for which the protein production result is listed as “not failed”.
Then “MIIPKMSRHALIGGGTGFIGRNLANHLTKKGYDVTVISRMPGAKRITWHELEKNGIPGSVNAVVNATGQNTLDPTRRWTPGFQQNVWNSRINSSKTLAQAIKSAPQVSSFVNLCGVSHYKPSESKVYTEEDQVQGFDYMSRLCLAWEEAAHTGSEQDCKTTILRCGAVVGHGGGMVQSMWLPFKFGVGGPLGNGNQIMPWIHLHDLCSLIQYIIEKPVPGVVNAVAPEITSNLEFSKAFAKALHRPCIFGVPEFVVQAIFGPERAALVLSGAKVKPQKALSSGFKFQYPSVKEAVTQLTLKG”, with “failed”.
Next, “MATRGSRSEKVKRIFQQFDGNHDGGLNREEMAALVVAVNPRVKFSDEQINAILDEVFRTYAEFIDPNKGLTYDGLLRTYDDGAGDVDRDFDALGLELNADETTIKGSEAASSSSITDERAVEAQKKQRTAAWAVSPNHGIVFDETWKLVDDLEILVKRLKSKQEKDGKLKADNNNNNVDAFSDAGWSRELGPSSEISEKRIYWEESSHDYGVFVKELGVLRSKADGARSREEAFDGHMAIGRVLYEHQLFKEALVSFKRACELQPTDVRPHFKAGNCLYVLGKCKESKDEFLLALEAAESGGNQWAYLLPQIYVNLGIALEGEGMVLSACEYYREAAILCPTHFRALKLLGSALFGVGEYRAAVKALEEAIYLKPDYADAHCDLASSLHSMGEDERAIEVFQRAIDLKPGHVDALYNLGGLYMDLGRFQRASEMYTRVLTVWPNHWRAQLNKAVSLLGAGETEEAKRALKEALKLTNRVELHDAISHLKHLQKKKGKNNGNGNGGEGPFIVVEPSKFKTVGEKTTLRPDLATALQIRAFQRVTRLGKCDVEAVRKEMRDNDVPVSYSGSGGPTKSIRKPNLEEILRRLLSSLKPDTFQGAIKAINEKILALLDDSGSGRVDMGMFYAVIAPLCGGHSDKRKRVAFDALLWRPVNEGSSQITKTDAVKYIKLLRAIYIPSHGMSEMLEVHGEEEAESSVTVTFNQFLAMFDDPDWGFGIMSTILKLEANDRNRHGNQVCSVCRYPVIGSRFKEVKARFSLCNQCYGEGKVPPSFKQEEYKFREYESEAEAMKAKCVCFSMQSHKKAIAT”: “failed”.
Next, “MSLSKKTIYIAGLGLIGGSLALGIKRDHPDYEILGYNRSDYSRNIALERGIVDRATGDFKEFAPLADVIILAVPIKQTMAYLKELADLDLKDNVIITDAGSTKREIVEAAERYLTGKNVQFVGSHPMAGSHKSGAIAADVTLFENAYYIFTPTSLTKETTIPELKDILSGLKSRYVEIDAAEHDRVTSQISHFPHLLASGLMEQAADYAQAHEMTNHFAAGGFRDMTRIAESEPGMWASILMTNGPAVLDRIEDFKKRLDHVADLIKAEDESAIWEFFDNGRKKRKEMEIHKKGGVESAFDIFVDVPDREGHHHHHH”: “not failed”.
In the case of “MTIMAGCMLVLPVMDAIAKYMAVSVGMSPAQVTFYRFFFQVLCTLPLLLVVSPGALFSAKRPWMNCLRGVLHASASLMFFAAVKYMPLADVFAIYFVEPFMLTMMSALFLGDRVGWKRWTAIVVGFGGALIVIQPSFEIFGWTSLLPVACAFFYTLYLFLNRAIGDADSPLVMQTMSGIAGTLFMAAALFAGDALGDKDFAVSLPQSAFALVLLVLLGSLSGYMHLLIVRAFRLAPLSLLAPFQYFEIISATILGYALFSDFPTPSKWLGILIIVASGLFIIWRERQQPASTPPLEGQ”, the protein production result is given as “failed”.
Then “MAAWVCILGQMKPDPETKPDPMRQTAQPAPQRLLRHLPLIVIVLIAVIGAITLRDYLSFDTLAANRQALLAYREAHYAALAAIFVATYVLIVAFSLPGAAVASMTGGFLFGLAVGTVLNVVAATIGAVAIFLAARAGLGAMLTARLEASEGTVKRLKEGLRRNEIEVLFLLRLVPAVPFFAANLIPALVGVKLRNYVLTTALGIVPGAIVFTWIGVGLGGVFDRGESPDLSLFREPFVIGPILGLCLLAALPIAIKALRGKPEGE”, with “failed”; and “MLDANKLQQAVDQAYTQFHSLNGGQNADYIPFLANVPGQLAAVAIVTCDGNVYSAGDSDYRFALESISKVCTLALALEDVGPQAVQDKIGADPTGLPFNSVIALELHGGKPLSPLVNAGAIATTSLINAENVEQRWQRILHIQQQLAGEQVALSDEVNQSEQTTNFHNRAIAWLLYSAGYLYCDAMEACDVYTRQCSTLLNTIELATLGATLAAGGVNPLTHKRVLQADNVPYILAEMMMEGLYGRSGDWAYRVGLPGKSGVGGGILAVVPGVMGIAAFSPPLDEDGNSVRGQKMVASVAKQLGYNVFKG”, with “not failed”.
Then “EEIRKIPMFSSYNPGEPNKVLYLKNLSPRVTERDLVSLFARFQEKKGPPIQFRMMTGRMRGQAFITFPNKEIAWQALHLVNGYKLYGKILVIEFGKNKKQRS”, with “not failed”.
